Target: Recombinant human galectin-1 (human) (UniProt P09382)
Test: SPR

UniProt P09382, sequence (P09382 whole entry): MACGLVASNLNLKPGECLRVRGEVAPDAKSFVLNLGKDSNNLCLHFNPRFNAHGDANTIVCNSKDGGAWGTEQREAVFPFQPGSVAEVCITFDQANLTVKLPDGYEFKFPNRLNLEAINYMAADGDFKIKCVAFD

Recombinant hemagglutinin (HA) from influenza A H1N1 (A/Puerto Rico/8/1934) (from UniProt P03452) (natural protein)
Kd: 425 nM

— article PMC4344939
